First the molecules themselves.
T1: LRP6 E1E2 protein (human, UniProt O75581 20-630, limits assumed)
T1 construct: domain: E1E2
T1 sequence (looked up): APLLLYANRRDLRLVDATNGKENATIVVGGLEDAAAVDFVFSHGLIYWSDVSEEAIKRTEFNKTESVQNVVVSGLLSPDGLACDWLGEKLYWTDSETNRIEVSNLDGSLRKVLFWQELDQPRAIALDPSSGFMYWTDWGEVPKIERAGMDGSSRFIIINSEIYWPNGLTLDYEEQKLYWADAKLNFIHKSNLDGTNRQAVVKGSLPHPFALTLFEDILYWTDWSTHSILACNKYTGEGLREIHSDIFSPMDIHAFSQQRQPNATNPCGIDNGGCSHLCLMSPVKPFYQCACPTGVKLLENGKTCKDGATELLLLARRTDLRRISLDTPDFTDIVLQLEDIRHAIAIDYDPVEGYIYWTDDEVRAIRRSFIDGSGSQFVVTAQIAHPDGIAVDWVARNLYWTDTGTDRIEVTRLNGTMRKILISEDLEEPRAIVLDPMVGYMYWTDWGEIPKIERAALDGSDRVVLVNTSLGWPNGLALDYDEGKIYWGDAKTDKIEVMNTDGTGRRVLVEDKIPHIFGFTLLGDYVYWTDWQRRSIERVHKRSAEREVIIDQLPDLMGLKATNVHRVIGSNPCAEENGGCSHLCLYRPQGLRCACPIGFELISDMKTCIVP

T2: hVEGF-A (8-109) (human, UniProt P15692 214-315)
T2 sequence (looked up): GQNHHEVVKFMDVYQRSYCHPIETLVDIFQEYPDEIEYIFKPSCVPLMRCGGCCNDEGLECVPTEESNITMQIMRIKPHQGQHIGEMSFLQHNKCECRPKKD

B1: LRP6_CKP16 (designed binder)
chain: GCSRNSIKCKQDSDCLAGCVCASGSSCG
B2: LRP6_CKP1 (designed binder)
chain: GCRTNRVKGGCKQDSDCLAGCVCGPNGFCG
B3: LRP6_CKP18 (designed binder)
chain: GCRANRVSGRCKQDSDCLAGCVCGPNGFCG
B4: LRP6_CKP7 (designed binder)
chain: GCVSNRVNKGCKQDSDCLAGCVCGPNGFCG
B5: LRP6_CKP5 (designed binder)
chain: GCVNKIKGCKQDSDCLAGCVCGVEGRCG
B6: LRP6_CKP12 (designed binder)
chain: GCRSNKLREARGCKQDSDCLAGCVCGSRQDCG
B7: LRP6_CKP2 (designed binder)
chain: GCVNRVRGCKQDSDCLAGCVCSGGRDCG
B8: LRP6_CKP17 (designed binder)
chain: GCSNYVKRCKQDSDCLAGCVCSPGGRCG
B9: LRP6_CKP13 (designed binder)
chain: GCVNSVKRCKQDSDCLAGCVCSRGVNCG
B10: LRP6_CKP4 (designed binder)
chain: GCRSVNKICKQDSDCLAGCVCGSSRNCG
B11: LRP6_CKP14 (designed binder)
chain: GCGSNKIRPRCKQDSDCLAGCVCGPNDFCG
B12: LRP6_CKP3 (designed binder)
chain: GCMNHVKARRCKQDSDCLAGCVCGPNGFCG
B13: LRP6_CKP15 (designed binder)
chain: GCNRIRNSCKQDSDCLAGCVCGRGDYCG
B14: LRP6_CKP20 (designed binder)
chain: GCENRTKGCKQDSDCLAGCVCGFRGTCG
B15: LRP6_CKP11 (designed binder)
chain: GCRSNRIRCKQDSDCLAGCVCYGHGDCG
B16: LRP6_CKP8 (designed binder)
chain: GCRGNIIKCKQDSDCLAGCVCNESRGCG
B17: LRP6_CKP22 (designed binder)
chain: GCANRVKRTSCKQDSDCLAGCVCGPNGFCG
B18: LRP6_CKP10 (designed binder)
chain: GCASSNSIRQGWCKQDSDCLAGCVCGPKSNCG
B19: LRP6_CKP21 (designed binder)
chain: GCGNKIRACKQDSDCLAGCVCRDRVGCG
B20: LRP6_CKP9 (designed binder)
chain: GCRSGNTIRKRECKQDSDCLAGCVCGGPGGCG
B21: VEGF_CKP1 (designed binder)
chain: GCETDWYPHQIDCKQDSDCLAGCVCGPNGFCG
B22: VEGF_CKP4 (designed binder)
chain: GCKKWQWWYMCKQDSDCLAGCVCYPWTECG
B23: VEGF_CKP3 (designed binder)
chain: GCHMMYDYCKQDSDCLAGCVCEMYDACG
B24: VEGF_CKP2 (designed binder)
chain: GCGETVFEQFLWCKQDSDCLAGCVCGPNGFCG
B25: VEGF_CKP5 (designed binder)
chain: GCPAIQNWKEHPCKQDSDCLAGCVCSWWPSLCG
B26: VEGF_CKP8 (designed binder)
chain: GCQLMHPFWGCKQDSDCLAGCVCHWYRSCG
B27: VEGF_CKP9.L5.43 (designed binder)
chain: GCQLMQPFWGCKQDSDCLAGCVCRWYHSCG
B28: VEGF_CKP9.54.51 (designed binder)
chain: GCNIMLPFWGCGWDQFCLAGCVCQYYQSCG
B29: VEGF_CKP9.54.48 (designed binder)
chain: GCNIMLPFWGCNRDFLCLAGCVCQYYQSCG
B30: VEGF_CKP9.54.12 (designed binder)
chain: GCNIMLPFWGCGPELNCLAGCVCQYYQSCG
B31: VEGF_CKP9.54.56 (designed binder)
chain: GCNIMLPFWGCGKDFHCLAGCVCQYYQSCG
B32: VEGF_CKP9.54.87 (designed binder)
chain: GCNIMLPFWGCGYDLQCLAGCVCQYYQSCG
B33: VEGF_CKP9.L5.7 (designed binder)
chain: GCQLMQPFWGCKQDSDCLAGCVCRWYNSCG
B34: VEGF_CKP9.54.31 (designed binder)
chain: GCNIMLPFWGCGTNFLCLAGCVCQYYQSCG
B35: VEGF_CKP9.54.14 (designed binder)
chain: GCNIMLPFWGCQADYACLAGCVCQYYQSCG
B36: VEGF_CKP9.54.16 (designed binder)
chain: GCNIMLPFWGCGVDYLCLAGCVCQYYQSCG
B37: VEGF_CKP9.54.44 (designed binder)
chain: GCNIMLPFWGCSRDFDCLAGCVCQYYQSCG
B38: VEGF_CKP9.54.69 (designed binder)
chain: GCNIMLPFWGCGKELNCLAGCVCQYYQSCG
B39: VEGF_CKP9.54.64 (designed binder)
chain: GCNIMLPFWGCSGDFACLAGCVCQYYQSCG
B40: VEGF_CKP9.54.76 (designed binder)
chain: GCNIMLPFWGCGWSMDCLAGCVCQYYQSCG
B41: EETI-II (peptide)
chain: GCPRILMRCKQDSDCLAGCVCGPNGFCG
notes: also called wild type EETI-II

For one experiment, the target named is T1, LRP6 E1E2 protein. Description: spot phage ELISA. (ELISA stands for enzyme-linked immunosorbent assay.)
For the molecule B1, the ELISA was found to be 3.36 and the “S/N vs BSA” value is 31.1.
On the same counts, the results for B2 are 3.23 and 45.5.
The matching figures for B3: 1.67 and 18.3.
For B4, the ELISA was 3.3 and the “S/N vs BSA” value was 29.
The matching figures for B5: 3.04 and 35.7.
The matching figures for B6: 0.6 and 6.78.
As to B7, the ELISA amounted to 3.41 and the “S/N vs BSA” value worked out at 41.6.
B8: the ELISA was determined as 3.09 and the “S/N vs BSA” value was found to be 35.9.
The matching figures for B9: 3.28 and 37.8.
For B10, the ELISA was found to be 2.82 and the “S/N vs BSA” value amounted to 25.4.
The matching figures for B11: 3.18 and 43.5.
The matching figures for B12: 2.93 and 40.2.
As to B13, the ELISA amounted to 2.03 and the “S/N vs BSA” value is 26.3.
On the same counts, the results for B14 are 3.1 and 38.7.
On the same counts, the results for B15 are 2.65 and 36.8.
In the case of B16, the ELISA amounted to 3.23 and the “S/N vs BSA” value is 37.6.
The matching figures for B17: 3.43 and 42.9.
On the same counts, the results for B18 are 3.29 and 37.4.
On the same counts, the results for B19 are 2.8 and 33.7.
As for B20, the ELISA stood at 2.97 and the “S/N vs BSA” value was determined as 37.6.

Another experiment deals with T2, hVEGF-A (8-109). Description: spot phage ELISA. The procedure: After four rounds of binding selection, individual phage clones were picked and inoculated into 450 μl 2YT media containing 50 µg/ml Carbenecillin and M13-KO7 helper phage in 96-well blocks, which were grown at 37° C. overnight. […] The plates were washed and bound phage was detected with anti-M13-HRP followed by TMB substrate. In these assays, phage binding to BSA alone was tested in parallel to assess background binding. […] Positive clones were subjected to DNA sequence analysis.
As to B21, the ELISA amounted to 0.9 and the “S/N vs BSA” value is 16.9.
The matching figures for B22: 2.6 and 35.3.
Regarding B23, the ELISA is 3.1 and the “S/N vs BSA” value turned out to be 42.9.
On the same counts, the results for B24 are 3.2 and 48.1.
On the same counts, the results for B25 are 1.9 and 28.4.
For the molecule B26, the ELISA was 3.9 and the “S/N vs BSA” value came to 59.4.
The matching figures for B27: 0.9 and 13.6.
On the same counts, the results for B28 are 2.5 and 44.5.
The matching figures for B29: 2.5 and 34.9.
With B30, the ELISA came out at 2.4 and the “S/N vs BSA” value was 38.8.
Turning to B31, the ELISA was 2.3 and the “S/N vs BSA” value was determined as 35.8.
B32: the ELISA stood at 2.4 and the “S/N vs BSA” value came out at 26.1.
On the same counts, the results for B33 are 1.4 and 18.9.
In the case of B34, the ELISA was 2.3 and the “S/N vs BSA” value was 32.5.
Take B35: the ELISA worked out at 2.5 and the “S/N vs BSA” value was found to be 23.5.
On the same counts, the results for B36 are 2.4 and 30.8.
In the case of B37, the ELISA was determined as 2.4 and the “S/N vs BSA” value was 34.4.
Consider B38, for which the ELISA amounted to 2.5 and the “S/N vs BSA” value was determined as 21.7.
On the same counts, the results for B39 are 2.2 and 22.4.
On the same counts, the results for B40 are 2.7 and 42.2.
On the same counts, the results for B41 are 0.01 and 1.11.

These data come from US20200325187A1 (Genentech, published 2020).
